Data taken from the RNAGym collection of RNA variant scans (doi:10.1073/pnas.2313332121).

B1: TPR t1 (parent)
chain: GACCAAUCUGCCCUCAGAGCUCGAGAACAUCUUCGGAUGCAGAGGAGGCAGGCUUCGGUGGCGCGAUAGCGCCAACGUCCUCAACCUCCAAUGCAUCCCACCACAUGAUGAUGCCUGAAGAGCCUUGGUUUUUUG

Variants of: B1
Test: polymerase ribozyme fitness, log enrichment relative to wild type (log ratio); higher = more active; in vitro selection for triplet polymerase activity
Procedure, shortened: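 Genotype fitness is the logarithm of its enrichment divided by wild-type enrichment, using inverse-variance-weighted averages of replicates. That logarithm is base 2. Enrichment was measured by Illumina sequencing of input and output libraries from one triplicate in vitro selection round, with frozen incubation at −7 °C, on PCR-built, transcribed mutant libraries of each subunit of a heterodimeric triplet polymerase ribozyme, retaining genotypes with ≥10 input reads and ≥1 read per output.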

Row | Variant | polymerase ribozyme fitness (log ratio)
1 | C4G C56A U59G C104U A111U C123U | -4.15
2 | C4A C8G G36U G45U G69C U78A C114U | -5.25
3 | C4G A18C A46G A83U G128A | -5.74
4 | C4A C124A | -0.256
5 | A5C C12A | -0.824
6 | A5C A84U | -1.12
7 | A5G C104U G117C U130G | -3.77
8 | A5G C12A G45A U78C C88A | -0.938
9 | C4G C12A C40A C72U G77U | -3.43
10 | A5G A41C | -0.911
11 | A5G A6C A43G C72U | -2.46
12 | A5C C56G | -1.73
13 | A5C A27G G63C A121G | 0.00315
14 | A5C C56G C98A A121C | -3.33
15 | C4G A5C C82U U125A | -1.74
16 | A5G G48C G63A G117C | -6.49
17 | C4U A43U C88U U92G | -2.04
18 | C4G C13U U33G G39U G44A C82U U112A | -4.58
19 | C4G A66G C115A | -2.94
20 | C4A A46U C53G U130C | -2.39
21 | C4A G52C A74C | -2.47
22 | A5C G63A C79U | -1.41
23 | C4A C13A G17A C22U A27G A46C G52C | -6.56
24 | C4A C13U C15G A37C G113A A121C | -6.02

Row | Variant | polymerase ribozyme fitness (log ratio)
25 | C4U C11A G51C | -4.83
26 | A5G C11A C70G U81C | -4.45
27 | A5G U112A G127U | 0.804
28 | C4U C11A G61U C98U G113A U126G | -5.59
29 | C4G C12A U87G C115U | -3.74
30 | A5C U32C A41G G60A U78A U96A | -2.78
31 | A5G A18G G117U U125A | -2.93
32 | A5U A43U G63A | -3.99
33 | A5U C22A | -3.71
34 | A5C A16G C20U A43G A121G | -0.652
35 | A5C C8G U33G C97U | -5.64
36 | C4U G69A C89U C123G | -3.15
37 | A5C G10A C86A | -0.155
38 | A5G C20U U38G G110U | -4.64
39 | A5U C8G G63U | -0.752
40 | C4G A5G C53A C89A G113U C114U G122U U129G | -4.07
41 | C4U C64A A68C C79A G120U | -6.51
42 | C4U C62U C124G | 1.31
43 | C4A A46U C88U U92A U116C | -6.04
44 | A5G C124A | 1.03
45 | C4G C123G G128C | -0.896
46 | C4G C72U | -1.37
47 | C4U G44U C76A G77U A91C G120A | -2.7
48 | C4G U78C C88U C94G C124U | -2.42

Row | Variant | polymerase ribozyme fitness (log ratio)
49 | C4A G48U G120U | -3.84
50 | C4G C80U C89G | -4.61
51 | C4G G44A A46U U59C | -3.73
52 | C4A U7A G110U | -2.4
53 | C4U A27G | -2.96
54 | A5C C22G C56G C123U | -4.43
55 | A5C C13U G60U | -0.844
56 | A5U C13A C15G C56A A121U | -1.44
57 | C4U A18C A29G C56A | -4.17
58 | C4A C88A | -1.56
59 | C4A C88U | -1.68
60 | C4U U87A | -1.16
61 | C4U C13A A46C A50G C72U | -3.05
62 | C4G G61A U87G | -2.28
63 | C4U C13G C15A G19A A90C C115U A119G | -5.79
64 | A5G G135U | -1.22
65 | A5G C8U C34A C62U G117A | -5.35
66 | C4G C13U U21C C62G G120U | -2.48
67 | C4U C72G C94G G113A G122U | -3.87
68 | A5C C56G C80U | -1.77
69 | A5G A43C G44C G52C C73U U109A C114U C115A | -6.36
70 | C4U C15A C82G | -3.56
71 | C4U A27U C72U | -2.49
72 | A5C C56A C80A | -3.29

Row | Variant | polymerase ribozyme fitness (log ratio)
73 | C4G U9G A41G U96C A111C U116A C123G | -1.71
74 | A5U C11A G42C C88U U106A A121C U125A | -1.65
75 | A5G C89G | -1.15
76 | A5G A27G G45C C97U G120A | -2.95
77 | C4G C70G | -3.78
78 | A5C C12G C114G | -5.39
79 | C4U C11U A18G C34U C73G C124G | -5.4
80 | C4G G135U | -2.5
81 | C4A A29G C88A | -3.39
82 | C4G U9C G57A G63C C79A A84C C89U | -4.8
83 | A5G C15U C49U C62A C123A | -2.06
84 | C4G U87G | -1.54
85 | C4G U9A U112G G117U | -2.18
86 | A5G C64U C85U | -1.64
87 | C4G A111G | -1.57
88 | A5C C53G U96A C123U | -0.893
89 | A5G A111G G122U | -2.04
90 | A5C G63C C94A G113C G122U | -4.6
91 | C4U C76G C114U U129A | -4.95
92 | A5G C12U G35A G71A U78A C85G C124A | -5.49
93 | C4U C86U C101G | -1.82
94 | A5U A41U G61A C82G G120A U125G | -2.7
95 | A5C C40A C64U C89U C102U U106A | -7.21
96 | C4G G44C C62U | -2.44

Row | Variant | polymerase ribozyme fitness (log ratio)
97 | C4G A27G A29G | -5.02
98 | C4U A41G | -0.698
99 | C4G C12U C97A U112C | -2.59
100 | C4U C11U A37U G71C | -1.4
101 | A5G U9A G52U | -1.25
102 | C4U C56A U130C | -0.451
103 | C4G C8G C11A U14G C124U | -0.919
104 | A5C G42U G48C G69U | -0.971
105 | C4U A5U C31G G45U U54A A68U G110A C114U | -6.24
106 | C4G C13U C53U A68G C115G A121U | -1.92
107 | A5G A46U C56U C73G G122A C123A | -3
108 | A5G C40U G45U A50C U125A | -4.22
109 | C4U A37U U38A A46G A50G | -2.72
110 | A5G U14A C73U | -2.23
111 | C4A A121U U129G | 0.901
112 | A5G C8G | -0.847
113 | A5G G120C | 0.0754
114 | A5C C12A A27U | -4.25
115 | C4U C11A A50C C85U U112C | -1.65
116 | A5G C13A C20U U129C | -4.45
117 | A5G A18G G44C G48C U55C U59G G69U G117U | -5.43
118 | A5C A43G C53U G63C G113C | -3.6
119 | C4U C62G U112A | -1.6
120 | C4G A46U C53A C72A C86A | -2.23

Row | Variant | polymerase ribozyme fitness (log ratio)
121 | A5C G51C G77A C80G | -0.996
122 | C4G C22G G42A C53G | -4.26
123 | A5C C11G C79U G117C | -1.88
124 | A5G G36U G61A A111C A119C | -2.68
125 | A5U C15U A16U U125A | -4.8
126 | A5C A26U G36A C88U | -6.38
127 | C4G G36A A43C G45U C124G | -4.47
128 | C4G C15A A16U C53A C72U U78C C115U | -3.84
129 | A5C U87G C101U | -0.776
130 | A5G A29U G48C U112G | -4.65
131 | A5C A43U U78C G93C | -4.85
132 | C4A C12A C86G G120U G128C | -1.61
133 | C4U A24U C70G U92G U116C G120C | -6.86
134 | C4G C13G | -3.83
135 | C4G C13A | -3.23
136 | C4U A6G C13G A83G | -1.95
137 | C4U C53G G57U G110A | -1.58
138 | C4G G61U | -1
139 | C4G C34A C72G | -5.9
140 | C4G A43U A46G G113A | -3.76
141 | C4U A16C C64U | -4.16
142 | C4G G39U A46C C72A U87G C88G | -3.06
143 | A5U C12U G71U C114A G128A | -4.71
144 | A5G C104A G113C | -4.37

Row | Variant | polymerase ribozyme fitness (log ratio)
145 | C4U G69U G93U | -1.17
146 | C4A G110U | -3.24
147 | A5G A41G A50U C72U A75U G93A U112A G113C | -3.59
148 | C4A U9A A43U C56A A83C U126A | -4.76
149 | C4U C11G C12A G19C C62G | -4.71
150 | C4A C13A A27C C123G | -3.14
151 | C4U A27C U54C C82A | -3.17
152 | C4G G57C C89A C123A | -3.43
153 | C4A C80A | -5.24
154 | C4G U9G A41G | -1.21
155 | A5U A95U | -1.24
156 | A5G A26U | -2.44
157 | C4U C49U C73G A121C | 0.746
158 | C4U C49U C98U | -2.14
159 | A5G G42U C115U | -1.79
160 | A5C C12G C49A C56A A83C | -1.46
161 | A5C G63A U81A | -2.31
162 | A5U A16C | -2.72
163 | A5G C72A | 0.0113
164 | C4G C40U A66C C86G C97A C115G | -6.24
165 | A5U A29C U78G C101U | -3.29
166 | C4G A27U G45A G61A C86A C97A G117A | -6.02
167 | A5C C124A U126A U131A | 0.939
